Test results taken from paper PMC10017356 (2023).
No end group written: not given here. *: point of attachment. Dansyl = CN(C)c1cccc2c(S(=O)(=O)*)cccc12

Molecular target: T1, Presenilin-1 peptide (Homo sapiens)
T1 chain: Dansyl-AFHQFYI
Assay: stopped-flow kinetics (FRET)

B1: X11 PDZ1 651-744 (protein)
chain: SENCKDVFIEKQKGEILGVVIVESGWGSILPTVIIANMMHGGPAEKSGKLNIGDQIMSINGTSLVGLPLSTCQSIIKGLKNQSRVKLNIVRCPP
- Kd: 5.5 µM

B2: X11 PDZ1-PDZ2-ΔC 651-827 (protein)
chain: SENCKDVFIEKQKGEILGVVIVESGWGSILPTVIIANMMHGGPAEKSGKLNIGDQIMSINGTSLVGLPLSTCQSIIKGLKNQSRVKLNIVRCPPVTTVLIRRPDLRYQLGFSVQNGIICSLMRGGIAERGGVRVGHRIIEINGQSVVATPHEKIVHILSNAVGEIHMKTMPAAMYRL
- Kd: 7 µM
